The results in this text go back to US20080166293A1.

The target of the experiment is human transferrin receptor (hTfR) (human) (UniProt P02786). Briefly: Scatchard analysis, 125I-labelled protein (tyrosine of the peptide iodinated) on CEF+hTfR cells on ice.
human transferrin receptor (hTfR) (human), sequence (P02786 whole entry): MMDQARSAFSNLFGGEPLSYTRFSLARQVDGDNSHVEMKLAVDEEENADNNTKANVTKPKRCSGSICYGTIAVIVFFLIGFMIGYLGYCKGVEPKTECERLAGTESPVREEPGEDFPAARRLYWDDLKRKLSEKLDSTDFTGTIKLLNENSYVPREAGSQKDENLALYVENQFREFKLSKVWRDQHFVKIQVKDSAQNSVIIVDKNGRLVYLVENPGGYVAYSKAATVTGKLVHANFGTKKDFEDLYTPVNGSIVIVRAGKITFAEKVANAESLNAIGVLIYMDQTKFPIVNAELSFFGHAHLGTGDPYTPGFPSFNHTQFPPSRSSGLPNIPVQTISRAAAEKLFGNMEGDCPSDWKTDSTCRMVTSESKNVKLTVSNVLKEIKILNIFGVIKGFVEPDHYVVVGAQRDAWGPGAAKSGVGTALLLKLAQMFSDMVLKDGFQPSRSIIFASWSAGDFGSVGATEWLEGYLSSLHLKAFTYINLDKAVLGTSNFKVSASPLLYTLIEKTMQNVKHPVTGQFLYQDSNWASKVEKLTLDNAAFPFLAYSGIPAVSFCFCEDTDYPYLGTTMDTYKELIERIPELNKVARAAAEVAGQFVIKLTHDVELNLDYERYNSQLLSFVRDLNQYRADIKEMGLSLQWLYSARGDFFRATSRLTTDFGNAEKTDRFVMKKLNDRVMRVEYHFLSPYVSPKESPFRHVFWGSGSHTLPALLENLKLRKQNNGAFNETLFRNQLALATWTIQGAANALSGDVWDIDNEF

In the case of GFP-HAIYPRH (Seq. ID No. 1), the Kd (in general, the concentration at which binding is half-saturated) is 360 µM.
